# How the values were obtained:
# PHF-tau (human) [1] = molecular target: PHF-tau (human) (UniProt P10636); assay: competition ELISA on PHF-tau captured by polyclonal anti-tau; biotinylated AT8, unlabeled competitor AT8 at 10 ug/ml
# PHF-tau (human) [2] = molecular target: PHF-tau (human) (UniProt P10636); assay: competition ELISA on PHF-tau captured by polyclonal anti-tau; biotinylated AT8, unlabeled competitor AT120 at 10 ug/ml
# PHF-tau (human) [3] = molecular target: PHF-tau (human) (UniProt P10636); assay: sandwich ELISA: AT120 coated, tau at 80 pg/ml spiked in tau-negative CSF, detection with biotinylated BT2 + HT7
# [4] = molecular target: affinity-purified human normal tau (human) (UniProt P10636); assay: as above
# PHF-tau (human) [5] = molecular target: PHF-tau (human) (UniProt P10636); assay: sandwich ELISA: AT120 coated, tau at 160 pg/ml spiked in tau-negative CSF, detection with biotinylated BT2 + HT7
# [6] = molecular target: affinity-purified human normal tau (human) (UniProt P10636); assay: as above
# PHF-tau (human) [7] = molecular target: PHF-tau (human) (UniProt P10636); assay: competition ELISA on PHF-tau captured by polyclonal anti-tau; biotinylated AT120, unlabeled competitor AT120 at 10 ug/ml
# PHF-tau (human) [8] = molecular target: PHF-tau (human) (UniProt P10636); assay: sandwich ELISA: AT120 coated, tau at 0 pg/ml (blank), detection with biotinylated BT2 + HT7
# [9] = molecular target: affinity-purified human normal tau (human) (UniProt P10636); assay: as above
# PHF-tau (human) [10] = molecular target: PHF-tau (human) (UniProt P10636); assay: sandwich ELISA: AT120 coated, tau at 40 pg/ml spiked in tau-negative CSF, detection with biotinylated BT2 + HT7
# [11] = molecular target: affinity-purified human normal tau (human) (UniProt P10636); assay: as above
# PHF-tau (human) [12] = molecular target: PHF-tau (human) (UniProt P10636); assay: sandwich ELISA: AT120 coated, tau at 10 pg/ml spiked in tau-negative CSF, detection with biotinylated BT2 + HT7
# [13] = molecular target: affinity-purified human normal tau (human) (UniProt P10636); assay: as above
# PHF-tau (human) [14] = molecular target: PHF-tau (human) (UniProt P10636); assay: sandwich ELISA: AT120 coated, tau at 20 pg/ml spiked in tau-negative CSF, detection with biotinylated BT2 + HT7
# [15] = molecular target: affinity-purified human normal tau (human) (UniProt P10636); assay: as above
# PHF-tau (human) [16] = molecular target: PHF-tau (human) (UniProt P10636); assay: competition ELISA on PHF-tau captured by polyclonal anti-tau; biotinylated AT120, unlabeled competitor AT8 at 10 ug/ml
# PHF-tau (human) [17] = molecular target: PHF-tau (human) (UniProt P10636); assay: competition ELISA on PHF-tau captured by polyclonal anti-tau; biotinylated BT2, unlabeled competitor AT120 at 10 ug/ml
# PHF-tau (human) [18] = molecular target: PHF-tau (human) (UniProt P10636); assay: competition ELISA on PHF-tau captured by polyclonal anti-tau; biotinylated BT2, unlabeled competitor BT2 at 10 ug/ml
substance,measurement,setting,value
monoclonal antibody AT8,Absorbance,PHF-tau (human) [1],0.001 absorbance
same,Absorbance,PHF-tau (human) [2],0.372 absorbance
monoclonal antibody AT120,absorbance (milliabsorbance units) (milliabsorbance units),PHF-tau (human) [3],901
same,absorbance (milliabsorbance units) (milliabsorbance units),[4],970
same,absorbance (milliabsorbance units) (milliabsorbance units),PHF-tau (human) [5],1680
same,absorbance (milliabsorbance units) (milliabsorbance units),[6],1610
same,Absorbance,PHF-tau (human) [7],0.001 absorbance
same,absorbance (milliabsorbance units) (milliabsorbance units),PHF-tau (human) [8],92
same,absorbance (milliabsorbance units) (milliabsorbance units),[9],87
same,absorbance (milliabsorbance units) (milliabsorbance units),PHF-tau (human) [10],566
same,absorbance (milliabsorbance units) (milliabsorbance units),[11],678
same,absorbance (milliabsorbance units) (milliabsorbance units),PHF-tau (human) [12],143
same,absorbance (milliabsorbance units) (milliabsorbance units),[13],154
same,absorbance (milliabsorbance units) (milliabsorbance units),PHF-tau (human) [14],257
same,absorbance (milliabsorbance units) (milliabsorbance units),[15],256
same,Absorbance,PHF-tau (human) [16],0.476 absorbance
monoclonal antibody BT2,Absorbance,PHF-tau (human) [17],0.543 absorbance
same,Absorbance,PHF-tau (human) [18],0.054 absorbance
